# Results as given in paper PMC12305717.
# Biological target: MlucV reporter (mTFP1 - mutated firefly luciferase - Venus), urea-pre-unfolded / misfolding (firefly)
# Chain of Ssa1 (yeast cytosolic Hsp70) (P10591 whole entry): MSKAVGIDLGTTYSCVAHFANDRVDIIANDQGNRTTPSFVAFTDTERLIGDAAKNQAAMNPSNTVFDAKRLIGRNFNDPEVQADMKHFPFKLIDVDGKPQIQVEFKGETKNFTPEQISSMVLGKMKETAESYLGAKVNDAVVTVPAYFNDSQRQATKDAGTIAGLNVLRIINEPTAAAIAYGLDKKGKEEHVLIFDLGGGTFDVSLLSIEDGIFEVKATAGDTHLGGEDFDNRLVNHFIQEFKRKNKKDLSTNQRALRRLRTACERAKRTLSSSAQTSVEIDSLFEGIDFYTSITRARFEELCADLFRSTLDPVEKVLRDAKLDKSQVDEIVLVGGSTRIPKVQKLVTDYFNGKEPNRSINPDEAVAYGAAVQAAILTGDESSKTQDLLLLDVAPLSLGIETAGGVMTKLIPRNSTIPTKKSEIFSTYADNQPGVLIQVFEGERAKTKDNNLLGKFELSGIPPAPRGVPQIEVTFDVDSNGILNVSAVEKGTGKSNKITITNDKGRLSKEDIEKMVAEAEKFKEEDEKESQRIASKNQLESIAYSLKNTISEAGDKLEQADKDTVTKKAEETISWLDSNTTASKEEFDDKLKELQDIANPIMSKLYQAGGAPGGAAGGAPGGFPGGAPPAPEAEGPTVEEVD
# Chain of Ydj1 (yeast class A J-domain protein) (P25491 whole entry): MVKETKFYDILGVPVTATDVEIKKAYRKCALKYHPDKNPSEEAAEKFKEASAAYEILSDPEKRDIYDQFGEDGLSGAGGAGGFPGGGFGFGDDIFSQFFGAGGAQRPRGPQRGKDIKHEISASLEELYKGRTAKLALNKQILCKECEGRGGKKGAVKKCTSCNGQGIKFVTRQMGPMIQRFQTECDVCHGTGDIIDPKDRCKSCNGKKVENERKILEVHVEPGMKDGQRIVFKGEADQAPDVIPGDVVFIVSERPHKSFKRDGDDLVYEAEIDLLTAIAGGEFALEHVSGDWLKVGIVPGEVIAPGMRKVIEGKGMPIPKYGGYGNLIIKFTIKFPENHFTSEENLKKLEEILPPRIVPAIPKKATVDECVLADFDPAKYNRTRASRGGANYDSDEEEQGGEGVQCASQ
Substance,prevention of aggregation: normalised FRET of urea-pre-unfolded MlucV diluted into increasing Ssa1 (150% without chaperone) (% of the FRET of native MlucV),prevention of aggregation: normalised FRET of urea-pre-unfolded MlucV diluted into increasing Ydj1 (150% without Ydj1; native MlucV = 100%) (% of the FRET of native MlucV)
Ssa1 (yeast cytosolic Hsp70) (from UniProt P10591 1-642) (natural protein),145,
Ydj1 (yeast class A J-domain protein) (from UniProt P25491 1-409) (natural protein),,105
